Measured values published in US20120195831A1 (published 2012).

Experiments:
[1] = biological target: T1, human Her3 receptor on cells (T47D, MCF7) (human, UniProt P21860 20-1342); test: cell-based or functional assay
mouse HER3/ErbB3 = biological target: T2, mouse HER3/ErbB3 (mouse, UniProt Q61526); test: FACS, purified IgG on CHO cells expressing mouse Her3, R-PE anti-mouse IgG
T2 construct: receptor expressed on CHO cells; also called mouse Her3 receptor on CHO cells
Experimental: (§1) CHO cell lines expressing human or mouse Her3 receptors were used to study species-cross reactivity. Cells were harvested and resuspended in PBS, 2% FBS at a concentration of approximately 1×10⁶/ml. Cells were stained with purified IgGs at 4° C. for 40 min. Cells were washed with 4 mL PBS, 2% FBS, then centrifuged at 1200 rpm for 10 minutes. Supernatant was removed. Cells were stained with R-PE conjugated anti-mouse IgG at 4° C. for 30 min. Cells were washed with 4 mL PBS, 2% FBS, then centrifuged at 1200 rpm for 10 minutes. Supernatant was removed and cell pellets were fixed in 1% formaldehyde. Cells were analyzed on a FACS Calibur (BD Biosciences) by collecting 20,000 events from gate 1.

[2] = biological target: T1, human Her3 receptor on cells (T47D, …); test: cell-based or functional assay; remark: listed apart in the source
[3] = biological target: T3, Her4 on CHO cells (CHO-Her4) (UniProt Q15303 26-1308, limits assumed); test: FACS on CHO-Her4 cells, purified IgG, R-PE anti-mouse IgG
T3 construct: whole, on cells
Experimental: as §1, with “CHO-Her2, CHO-Her4, CHO-EGFR cells” for “CHO cell lines expressing human or mouse Her3 receptors were used to study species-cross reactivity. Cells”

Her3/Avi/His10 receptor [4] = biological target: T4, Her3/Avi/His10 receptor (Homo sapiens (Human), UniProt P21860 20-643, limits assumed); test: AlphaScreen ligand blocking: antibody titrated against 10 nM biotinylated NRG-1 beta and 10 nM Her3/Avi/His10, % signal
T4 construct: Soluble tagged receptor of the AlphaScreen assay; The antibodies are called anti-hHer3 there; not shown: Avi tag; His10 tag (ten histidines by its name)
Experimental: (§2) SDI or Genovac purified anti-hHer3 Mabs were serially diluted two-fold into an assay buffer made from 25 mM Hepes, 100 mM NaCl, 0.5% BSA and 0.05% Tween20 in an opaque/white, half-well area plate (Costar). Mouse IgG1 antibody was used as a negative control (Southern Biotech; cat #010201). Biotinylated NRG-1 beta ligand and Her3/Avi/His₁₀ receptor were added sequentially at 10 nM concentration to the assay plate containing serially diluted antibodies. This mixture of receptor, ligand and the antibodies was incubated at room temperature with gentle shaking for 90 minutes. AlphaScreen Streptavidin Donor beads and His-Nickel chelate Acceptor beads were added into the assay at a final concentration of 20 μg/ml each. The light sensitive beads were handled under chromagreen filtered light. The assay plates were covered with foil and incubated at room temperature with gentle shaking for 1 hour. The plates were read in PE EnVision plate reader equipped with an Alpha module (dedicated laser for excitation and designed to measure the signal above the well). Table 7 listed IC₅₀ values in ligand blocking that were estimated using four parameter curve fitting with concentration titration graphs (FIGS. 7 A&B).

Her3/Avi/His10 receptor [5] = biological target: T4, Her3/Avi/His10 receptor; test: AlphaScreen competition; antibody titrated against 10 nM biotinylated NRG-1 beta and 10 nM Her3/Avi/His10; n = 3
Experimental: as §2

[6] = biological target: T1, human Her3 receptor on cells (T47D, …); test: cell-based or functional assay; remark: listed apart in the source
[7] = biological target: T5, EGFR on CHO cells (CHO-EGFR) (UniProt P00533 25-1210, limits assumed); test: FACS on CHO-EGFR cells, purified IgG, R-PE anti-mouse IgG
T5 construct: whole, on cells
Experimental: as §1, with “CHO-Her2, CHO-Her4, CHO-EGFR cells” for “CHO cell lines expressing human or mouse Her3 receptors were used to study species-cross reactivity. Cells”

[8] = biological target: T6, Recombinant Human Her3 (Her3/ErbB3 extracellular domain) (human, UniProt P21860 20-643); test: SPR (BIAcore), Mab captured by anti-IgG Fc on CM5 chip, recombinant human Her3 as analyte, 25 °C
T6 construct: Analyte of the BIAcore assay; also called Her3 ECD; human Her3/ErbB3 extracellular domain
Experimental: All experiments were performed at 25° C. at a flow rate of 40 μl/min. To prepare a BIAcore assay, an anti-human IgG-Fc antibody (50 μg/ml each in acetate buffer, pH 5.0) was immobilized onto a carboxymethyl dextran sensorchip (CM5) using amine coupling procedures as described by the manufacturer. 10000 resonance units (RU) of anti-mouse IgG Fc antibodies were linked respectively onto Flowcells (FC) 1 and 2. Purified Mabs to be tested were diluted at a concentration of 5 μg/ml in 0.5% P20, HBS-EP buffer and injected on FC2 to reach 500 to 1000 RU. FC1 was used as the reference cell. Specific signals correspond to the difference of signals obtained on FC2 versus FC1. The analyte (Recombinant Human Her3, apparent molecular weight 97 kDa) was injected during 90 sec at 5 different concentrations (100, 50, 25, 12.5 and 6.25 nM) in 0.5% P20, HBS-EP buffer. These concentrations were prepared from stock solution in 0.5% P20, HBS-EP. The dissociation phase of the analyte was monitored over a 10 minutes period. Running buffer was also injected under the same conditions as a double reference. After each cycle (antibody+Her3 injection), both Flowcells were regenerated by injecting 20 to 45 μl of Glycine-HCl buffer pH 1.5. This regeneration is sufficient to eliminate all Mabs and Mabs/Her3 complexes captured on the sensorchip. Table 1 listed binding KD for Her3 binding monoclonal antibodies.

[9] = biological target: T7, Her2 on CHO cells (CHO-Her2) (UniProt P04626 23-1255, limits assumed); test: FACS on CHO-Her2 cells, purified IgG, R-PE anti-mouse IgG
T7 construct: whole, on cells
Experimental: as §1, with “CHO-Her2, CHO-Her4, CHO-EGFR cells” for “CHO cell lines expressing human or mouse Her3 receptors were used to study species-cross reactivity. Cells”

[10] = biological target: T1, human Her3 receptor on cells (T47D, …); test: cell-based or functional assay; remark: listed apart in the source

T1 sequence (P21860 20-1342 limits assumed, stated change not applied): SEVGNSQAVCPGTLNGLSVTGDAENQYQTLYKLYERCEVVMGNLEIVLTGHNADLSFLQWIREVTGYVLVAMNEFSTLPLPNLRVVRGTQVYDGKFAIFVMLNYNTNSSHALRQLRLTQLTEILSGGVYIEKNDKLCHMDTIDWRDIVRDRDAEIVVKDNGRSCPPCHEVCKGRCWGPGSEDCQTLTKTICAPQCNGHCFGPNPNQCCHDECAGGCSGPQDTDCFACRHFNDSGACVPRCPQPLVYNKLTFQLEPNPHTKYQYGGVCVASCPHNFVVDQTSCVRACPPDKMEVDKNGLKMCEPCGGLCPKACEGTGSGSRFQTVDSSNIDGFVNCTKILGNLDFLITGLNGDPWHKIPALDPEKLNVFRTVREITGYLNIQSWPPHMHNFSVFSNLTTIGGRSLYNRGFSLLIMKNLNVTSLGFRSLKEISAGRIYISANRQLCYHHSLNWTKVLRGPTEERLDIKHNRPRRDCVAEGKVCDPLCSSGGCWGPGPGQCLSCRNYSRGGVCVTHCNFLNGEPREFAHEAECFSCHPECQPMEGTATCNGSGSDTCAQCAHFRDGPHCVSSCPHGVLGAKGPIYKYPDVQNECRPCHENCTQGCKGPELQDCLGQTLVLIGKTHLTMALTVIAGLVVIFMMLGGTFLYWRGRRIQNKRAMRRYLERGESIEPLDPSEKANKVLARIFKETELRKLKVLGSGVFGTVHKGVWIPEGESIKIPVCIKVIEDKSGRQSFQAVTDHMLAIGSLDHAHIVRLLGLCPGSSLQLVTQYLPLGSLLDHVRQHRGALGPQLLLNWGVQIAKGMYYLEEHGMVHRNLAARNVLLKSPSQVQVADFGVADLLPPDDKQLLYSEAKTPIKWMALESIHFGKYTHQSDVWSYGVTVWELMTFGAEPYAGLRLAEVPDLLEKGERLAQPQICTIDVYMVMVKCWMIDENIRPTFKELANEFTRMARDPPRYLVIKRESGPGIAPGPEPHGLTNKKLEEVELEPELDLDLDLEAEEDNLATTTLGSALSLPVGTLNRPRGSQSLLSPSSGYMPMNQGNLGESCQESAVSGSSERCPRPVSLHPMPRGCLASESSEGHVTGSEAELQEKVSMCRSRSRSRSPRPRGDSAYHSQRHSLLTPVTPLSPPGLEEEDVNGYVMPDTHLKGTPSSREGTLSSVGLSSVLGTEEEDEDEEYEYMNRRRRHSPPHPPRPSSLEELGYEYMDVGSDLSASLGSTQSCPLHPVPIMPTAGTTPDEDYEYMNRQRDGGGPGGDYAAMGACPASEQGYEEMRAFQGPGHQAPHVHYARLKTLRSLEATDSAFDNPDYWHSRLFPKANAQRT
T4 sequence (P21860 20-643 limits assumed): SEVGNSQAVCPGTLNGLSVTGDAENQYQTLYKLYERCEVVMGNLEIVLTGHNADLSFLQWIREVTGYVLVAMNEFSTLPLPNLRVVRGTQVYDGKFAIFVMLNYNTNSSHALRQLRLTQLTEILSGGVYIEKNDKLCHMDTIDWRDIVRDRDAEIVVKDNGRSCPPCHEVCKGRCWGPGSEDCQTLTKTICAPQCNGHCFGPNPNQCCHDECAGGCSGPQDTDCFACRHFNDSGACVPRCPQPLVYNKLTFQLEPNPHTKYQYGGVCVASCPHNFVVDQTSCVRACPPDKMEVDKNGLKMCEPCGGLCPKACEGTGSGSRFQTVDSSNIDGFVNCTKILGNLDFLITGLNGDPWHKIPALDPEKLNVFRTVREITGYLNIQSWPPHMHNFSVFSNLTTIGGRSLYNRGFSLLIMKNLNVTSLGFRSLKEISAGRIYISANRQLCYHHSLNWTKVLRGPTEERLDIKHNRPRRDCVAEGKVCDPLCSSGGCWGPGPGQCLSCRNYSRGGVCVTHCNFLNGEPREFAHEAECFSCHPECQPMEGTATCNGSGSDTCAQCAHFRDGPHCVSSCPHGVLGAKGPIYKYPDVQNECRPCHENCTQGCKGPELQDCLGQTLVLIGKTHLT
T3 sequence (Q15303 26-1308 limits assumed): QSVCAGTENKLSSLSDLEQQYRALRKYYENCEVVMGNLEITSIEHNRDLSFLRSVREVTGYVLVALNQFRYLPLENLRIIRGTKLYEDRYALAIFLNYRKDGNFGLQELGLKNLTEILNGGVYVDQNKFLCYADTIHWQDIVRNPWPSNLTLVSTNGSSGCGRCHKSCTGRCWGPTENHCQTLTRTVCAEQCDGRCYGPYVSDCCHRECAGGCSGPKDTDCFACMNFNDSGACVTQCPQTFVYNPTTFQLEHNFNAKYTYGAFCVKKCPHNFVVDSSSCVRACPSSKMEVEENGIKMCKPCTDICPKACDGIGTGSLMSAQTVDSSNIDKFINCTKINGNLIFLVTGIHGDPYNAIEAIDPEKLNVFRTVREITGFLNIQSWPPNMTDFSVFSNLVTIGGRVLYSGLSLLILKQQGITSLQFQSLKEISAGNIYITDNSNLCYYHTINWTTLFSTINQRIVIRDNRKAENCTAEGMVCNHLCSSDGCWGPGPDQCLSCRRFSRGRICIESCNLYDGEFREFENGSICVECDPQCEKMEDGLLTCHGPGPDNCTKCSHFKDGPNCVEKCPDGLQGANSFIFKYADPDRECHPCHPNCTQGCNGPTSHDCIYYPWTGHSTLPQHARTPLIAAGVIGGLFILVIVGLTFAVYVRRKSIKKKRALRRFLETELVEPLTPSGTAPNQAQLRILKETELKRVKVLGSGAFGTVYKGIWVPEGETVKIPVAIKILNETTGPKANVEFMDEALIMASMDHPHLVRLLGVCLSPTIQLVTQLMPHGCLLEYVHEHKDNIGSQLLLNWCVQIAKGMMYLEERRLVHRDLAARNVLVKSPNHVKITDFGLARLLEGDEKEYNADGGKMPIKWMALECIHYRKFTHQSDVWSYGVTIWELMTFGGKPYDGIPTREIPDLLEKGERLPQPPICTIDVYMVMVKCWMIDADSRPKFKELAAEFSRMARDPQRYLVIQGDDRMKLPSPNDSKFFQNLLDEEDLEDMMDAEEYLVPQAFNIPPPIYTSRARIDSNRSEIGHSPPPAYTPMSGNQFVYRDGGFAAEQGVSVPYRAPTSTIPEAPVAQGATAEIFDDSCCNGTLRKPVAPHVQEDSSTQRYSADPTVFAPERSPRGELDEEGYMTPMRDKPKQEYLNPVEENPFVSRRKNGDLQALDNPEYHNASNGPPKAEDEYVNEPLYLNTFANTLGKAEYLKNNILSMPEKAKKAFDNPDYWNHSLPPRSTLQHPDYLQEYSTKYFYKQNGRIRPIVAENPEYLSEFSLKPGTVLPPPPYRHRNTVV
T2 sequence (Q61526 20-1339 limits assumed): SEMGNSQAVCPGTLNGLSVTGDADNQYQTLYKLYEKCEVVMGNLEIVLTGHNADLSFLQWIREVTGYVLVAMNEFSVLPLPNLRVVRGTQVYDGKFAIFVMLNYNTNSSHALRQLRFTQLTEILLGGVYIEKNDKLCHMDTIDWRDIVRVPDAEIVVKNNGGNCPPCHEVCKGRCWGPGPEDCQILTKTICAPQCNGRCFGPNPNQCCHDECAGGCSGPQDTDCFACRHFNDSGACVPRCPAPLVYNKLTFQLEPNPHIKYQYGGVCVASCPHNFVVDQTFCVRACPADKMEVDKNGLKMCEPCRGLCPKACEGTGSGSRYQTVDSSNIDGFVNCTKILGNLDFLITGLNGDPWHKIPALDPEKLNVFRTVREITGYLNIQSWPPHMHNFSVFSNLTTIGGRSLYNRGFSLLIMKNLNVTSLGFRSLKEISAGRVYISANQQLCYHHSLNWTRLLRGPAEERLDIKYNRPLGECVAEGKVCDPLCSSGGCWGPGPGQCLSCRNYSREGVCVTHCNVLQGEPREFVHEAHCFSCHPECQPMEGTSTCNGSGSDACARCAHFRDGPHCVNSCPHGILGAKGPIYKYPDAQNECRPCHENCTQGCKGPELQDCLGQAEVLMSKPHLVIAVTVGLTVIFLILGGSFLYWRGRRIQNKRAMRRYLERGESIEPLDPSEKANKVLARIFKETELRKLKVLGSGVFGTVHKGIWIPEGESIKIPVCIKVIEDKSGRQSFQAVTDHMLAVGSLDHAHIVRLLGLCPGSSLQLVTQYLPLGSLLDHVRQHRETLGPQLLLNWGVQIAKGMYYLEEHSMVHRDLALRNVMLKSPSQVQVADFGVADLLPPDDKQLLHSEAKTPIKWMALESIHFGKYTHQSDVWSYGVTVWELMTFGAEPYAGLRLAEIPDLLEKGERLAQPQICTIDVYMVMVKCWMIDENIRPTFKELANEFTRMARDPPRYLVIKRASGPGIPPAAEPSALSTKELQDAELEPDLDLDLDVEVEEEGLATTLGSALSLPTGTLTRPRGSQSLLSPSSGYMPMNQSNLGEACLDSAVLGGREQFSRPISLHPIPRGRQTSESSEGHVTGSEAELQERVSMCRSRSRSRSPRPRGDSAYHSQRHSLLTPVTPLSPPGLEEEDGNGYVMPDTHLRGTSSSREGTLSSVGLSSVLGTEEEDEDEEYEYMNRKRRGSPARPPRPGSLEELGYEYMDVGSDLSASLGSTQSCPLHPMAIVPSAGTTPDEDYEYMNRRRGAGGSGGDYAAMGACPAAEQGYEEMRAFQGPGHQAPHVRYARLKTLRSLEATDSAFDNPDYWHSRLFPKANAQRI
T6 sequence (P21860 20-643 limits assumed): as the sequence (P21860 20-643 limits assumed) above

| IC50 of inhibition of pHer3 (MCF7 cells stimulated with rhNRG1-β1, ELISA) [1] | binding result (mouse HER3/ErbB3) | % Receptor Internalization (T47D cells, FACS) [2] | binding result [3] | IC50 (Her3/Avi/His10 receptor [4]) | IC50 (Her3/Avi/His10 receptor [5]) | IC50 of pERK inhibition (MCF7 cells stimulated with rhNRG1-β1, MSD) [6] | binding result [7] | Kd [8] | binding result [9] | IC50 of pAKT inhibition (MCF7 cells stimulated with rhNRG1-β1, ELISA) [10] | Binder |
| --- | --- | --- | --- | --- | --- | --- | --- | --- | --- | --- | --- |
| 2.91 nM | binds | 13% | no binding | 42.6 nM | 72.8 nM | 290 nM | no binding | 5.5 nM | no binding |  | PO-1G2-B6 (antibody, V domains shown, Purified mouse IgG from a hybridoma; also called PO-1G2-B6-HC; PO-1G2-B6-LC) VH: EVQLQQSGPELVKPGASVKISCKASGYSFTGYHIHWMKQSHVESLEWIGRINPYSGVTDYNQNFKDKANLTVDQSSSTAYMELHSLTSEDSAFYYCARTDYYGPWFAYWGQGTLVTVSA VL: DIQMTQSPLSLPVSLGDQASISCRSSPSLVHSNGNTYLHWYLQKPGQSPKLLIYTVSNRFSGVPDRFSGSGSGTDFTLKINRVEAEDLGVYFCSQTTHVPWTFGGGTKLEIKR |
| 4.98 nM | binds | 14% | no binding | 11 nM | 12.7 nM |  | no binding | 1.6 nM | no binding | 45.2 nM | PO-3H7-E3 (antibody, V domains shown, Purified mouse IgG from a hybridoma; also called PO-3H7-E3-HC; PO-3H7-E3-LC) VH: EVQLQQSGAELVKPGASVKISCKASGYSFTGYYMNWVKQSHGKSLEWIGNINPYYGGSNYNQKFKARATLTVDKSSSTAYMQLNSLTSEDSAVYYCARKGDLYYSMDYWGQGTSVTVSS VL: DIVMTQTPLSLPVSLGDQASISCRSSQSIVHSNGNTYLEWYLQKPGQSPKLLIYKVSNRFSGVPDRFSGSGSGTDFTLKISRVEAEDLGIYYCFQGSHVPPTFGGGTKLELKR |
